Test [1] has as its target calreticulin (hamster (endogenous in CHO)) (UniProt Q8K3H7). The test can be described thus: co-IP.
Test [2] shares this target. The test can be described thus: co-IP. The source holds these as a separate data set.

Like-named read-outs stand apart in the source and are kept apart here.

UniProt Q8K3H7, sequence (Q8K3H7 18-417): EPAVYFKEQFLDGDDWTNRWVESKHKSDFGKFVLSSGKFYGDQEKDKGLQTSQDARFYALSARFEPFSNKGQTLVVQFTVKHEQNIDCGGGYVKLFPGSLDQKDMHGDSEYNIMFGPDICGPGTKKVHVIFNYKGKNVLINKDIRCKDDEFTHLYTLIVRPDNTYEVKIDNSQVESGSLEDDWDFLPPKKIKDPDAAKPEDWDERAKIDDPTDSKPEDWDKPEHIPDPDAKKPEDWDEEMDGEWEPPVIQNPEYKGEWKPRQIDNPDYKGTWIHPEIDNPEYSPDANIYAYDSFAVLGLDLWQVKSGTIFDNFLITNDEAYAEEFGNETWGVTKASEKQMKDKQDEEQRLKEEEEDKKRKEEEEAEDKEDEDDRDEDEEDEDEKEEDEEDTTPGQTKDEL

With “influenza hemagglutinin (HA) wild type, transiently expressed in MI8-5 CHO cells (from UniProt P03437 17-566) (natural protein)”, the percent bound was 16% in test [1] and 70% in test [2].

The values are drawn from publication PMC2315677.
